Laboratory results from patent US20200172620A1.

Columns and labels:
[1] = target: human CD8 on cells (FACS) (human) (UniProt P01732); assay: FACS
[2] = target: human CD8 (as used in SPR) (human) (UniProt P01732); assay: SPR
Sequence of human CD8 (as used in SPR) (human) (P01732 22-182): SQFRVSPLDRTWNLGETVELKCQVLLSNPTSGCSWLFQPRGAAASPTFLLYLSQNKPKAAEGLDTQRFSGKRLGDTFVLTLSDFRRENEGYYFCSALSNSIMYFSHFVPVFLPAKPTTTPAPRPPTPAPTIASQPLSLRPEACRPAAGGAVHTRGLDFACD

Sequence of human CD8 on cells (FACS) (human) (P01732 22-235): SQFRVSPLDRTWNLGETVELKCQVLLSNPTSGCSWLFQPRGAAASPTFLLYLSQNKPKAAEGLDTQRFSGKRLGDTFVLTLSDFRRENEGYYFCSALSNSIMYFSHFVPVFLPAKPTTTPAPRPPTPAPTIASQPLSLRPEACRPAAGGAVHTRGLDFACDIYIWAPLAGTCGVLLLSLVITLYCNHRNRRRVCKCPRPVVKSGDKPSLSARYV

B1: OKT8 (antibody, from another filing, V domains shown)
VH: EVQLQQSGAELVKPGASVKLSCTASGFNIKDTYIHFVRQRPEQGLEWIGRIDPANDNTLYASKFQGKATITADTSSNTAYMHLCSLTSGDTAVYYCGRGYGYYVFDHWGQGTTLTVSS
VL: DVQINQSPSFLAASPGETITINCRTSRSISQYLAWYQEKPGKTNKLLIYSGSTLQSGIPSRFSGSGSGTDFTLTISGLEPEDFAMYYCQQHNENPLTFGAGTKLELK
Kd [1]: 20 nM | Kd [2]: 13 nM | Ratio of KD huOKT8.v1/KD variant for binding to huCD8 [2]: 1 X
